B1: murine LPHN3 olfactomedin domain (LPHN3^Olf, residues 202-463) (domain or fragment, UniProt Q80TS3 202-463, looked up)
chain: LCPGLLKGVYQSEHLFESDHQSGAWCKDPLQASDKIYYMPWTPYRTDTLTEYSSKDDFIAGRPTTTYKLPHRVDGTGFVVYDGALFFNKERTRNIVKFDLRTRIKSGEAIIANANYHDTSPYRWGGKSDIDLAVDENGLWVIYATEQNNGKIVISQLNPYTLRIEGTWDTAYDKRSASNAFMICGILYVVKSVYEDDDNEATGNKIDYIYNTDQSKDSLVDVPFPNSYQYIAAVDYNPRDNLLYVWNNYHVVKYSLDFGPLD
notes: Latrophilin 3 (LPHN3), mouse, olfactomedin-like domain, residues 202-463; also called LPHN3 Olf domain; olfactomedin domain of murine LPHN3; source: kifunensine-treated HEK293T cells, transiently expressed, purified
B2: murine LPHN3^Lec-Olf, wild type, biotinylated at a C-terminal Avi-Tag (domain or fragment, UniProt Q80TS3 92-463, looked up)
chain: PIPMAVVRRELSCESYPIELRCPGTDVIMIESANYGRTDDKICDSDPAQMENIRCYLPDAYKIMSQRCNNRTQCAVVAGPDVFPDPCPGTYKYLEVQYECVPYKVEQKVFLCPGLLKGVYQSEHLFESDHQSGAWCKDPLQASDKIYYMPWTPYRTDTLTEYSSKDDFIAGRPTTTYKLPHRVDGTGFVVYDGALFFNKERTRNIVKFDLRTRIKSGEAIIANANYHDTSPYRWGGKSDIDLAVDENGLWVIYATEQNNGKIVISQLNPYTLRIEGTWDTAYDKRSASNAFMICGILYVVKSVYEDDDNEATGNKIDYIYNTDQSKDSLVDVPFPNSYQYIAAVDYNPRDNLLYVWNNYHVVKYSLDFGPLD
modifications: biotin on the C-terminal Avi-Tag (enzymatic)
notes: Latrophilin 3 (LPHN3), mouse, lectin and olfactomedin-like domains; residues 92-463 are stated for the crystallization construct; Limits 92-463 are printed for the crystallization construct; the limits of the Avi-tagged construct may be in the Supplemental Experimental Procedures; also called LPHN^Lec-Olf; not shown: Avi-Tag, C-terminal, kept
B3: murine LPHN3^Lec-Olf mutant LPHN3^LF(4) (P244N+R246T), biotinylated at a C-terminal Avi-Tag (domain or fragment, UniProt Q80TS3 92-463, looked up)
chain: B2 chain with P153N, R155T
modifications: biotin on the C-terminal Avi-Tag (enzymatic)
notes: Latrophilin 3 (LPHN3), mouse, lectin and olfactomedin-like domains; residues 92-463 are stated for the crystallization construct; artificial N-linked glycosylation site; not shown: Avi-Tag, C-terminal, kept
B4: murine LPHN3^Lec-Olf mutant LPHN3^LF(3) (T267N+K269T), biotinylated at a C-terminal Avi-Tag (domain or fragment, UniProt Q80TS3 92-463, looked up)
chain: B2 chain with T176N, K178T
modifications: biotin on the C-terminal Avi-Tag (enzymatic)
notes: as for B3
B5: murine FLRT2 full ectodomain, wild type (residues 35-540), Q8BLU0 UF (protein)
chain: ACPSVCRCDRNFVYCNERSLTSVPLGIPEGVTVLYLHNNQINNAGFPAELHNVQSVHTVYLYGNQLDEFPMNLPKNVRVLHLQENNIQTISRAALAQLLKLEELHLDDNSISTVGVEDGAFREAISLKLLFLSKNNLSSVPVGLPVDLQELRVDENRIAVISDMAFQNLTSLERLIVDGNLLTNKGIAEGTFSHLTKLKEFSIVRNSLSHPPPDLPGTHLIRLYLQDNQINHIPLTAFANLRKLERLDISNNQLRMLTQGVFDHLSNLKQLTARNNPWFCDCSIKWVTEWLKYIPSSLNVRGFMCQGPEQVRGMAVRELNMNLLSCPTTTPGLPVFTPAPSTVSPTTQSPTLSVPSPSRGSVPPAPTPSKLPTIPDWDGRERVTPPISERIQLSIHFVNDTSIQVSWLSLFTVMAYKLTWVKMGHSLVGGIVQERIVSGEKQHLSLVNLEPRSTYRICLVPLDAFNYRTVEDTICSEATTHASYLNNGSNTASSHEQTTSHSMGSP
B6: murine FLRT2 full ectodomain, wild type (residues 35-540) (domain or fragment)
chain: B5 chain with N136H

The target of test [1] is murine FLRT2 full ectodomain, wild type (residues 35-540) (murine) (UniProt Q8BLU0). Put plainly: SPR; one or the other of the two set-ups (FLRT2 ectodomain on CM5 with LPHN3 Olf as analyte, or LPHN3^Lec-Olf on streptavidin with FLRT2 ectodomain as analyte); the text does not say which value belongs to which; 25°C, PBS pH 7.5. A general note: Surface plasmon resonance follows binding to a sensor surface in real time, without labels.

In test [2] the target is T1, murine LPHN3 olfactomedin domain (LPHN3^Olf, residues 202-463) (murine, UniProt Q80TS3 202-463).
T1 chain: B1 chain
Nature of the test: SPR.

Test [3] addresses T2, murine FLRT2 full ectodomain, wild type (residues 35-540) (murine, UniProt Q8BLU0 35-540).
T2 construct: Fibronectin leucine-rich repeat transmembrane protein 2 (FLRT2), mouse, full-length ectodomain, residues 35-540; also called FLRT2 ectodomain; source: HEK293S GlnTI- cells, transiently expressed
T2 sequence (looked up): B5 chain with N136H
Put plainly: SPR; FLRT2 ectodomains (wild type, UF, FF) amine-coupled to a CM5 Biacore chip, LPHN3 Olf domain injected as analyte; equilibrium, 25°C, PBS pH 7.5, 0.005% polysorbate 20; 1:1 model. To be noted: both partners purified.

The target in test [4] is B6. Put plainly: SPR.
The target in test [5] is T2, murine FLRT2 full ectodomain, wild type …. Nature of the test: SPR; biotinylated wild-type or mutant LPHN3^Lec-Olf on streptavidin-coated Biacore chips, FLRT2 ectodomain injected as analyte; equilibrium, 25°C, PBS pH 7.5, 0.005% polysorbate 20; 1:1 model. The settings on record: both partners purified.
Test [6] deals with T3, murine LPHN3 olfactomedin domain (LPHN3^Olf, residues 202-463), Q80TS3.
T3 chain: B1 chain
Nature of the test: SPR. The settings on record: chain shown with the change.

Setting [7] is: maximum response at the highest LPHN3 Olf concentration plotted (about 2 µM), parent: est. 390, read off a plot.

Residue numbers refer to the chain shown, from its start. Names may count otherwise.

One may read the Kd as the concentration at which binding is half-saturated. The molecule wild-type LPHN3 proteins displayed a Kd in test [1] of 18 to 40 nM.

On to “murine FLRT2 full ectodomain, wild type (residues 35-540) (from UniProt Q8BLU0) FF”, for which the response in test [2] (setting [7]) is -0 RU. As to B1, the binding result in test [3] is listed as “binds”. The molecule B2 yielded an equilibrium dissociation constant (Kd) in test [4] of 18 nM. For the same molecule, in test [5], the binding result is “binds”. Turning to B3, the binding result in test [5] was “binds”. Turning to B4, in test [5], the binding result is “binds”. With B5, in test [6] (FLRT2 ectodomains immobilized on a CM5 Biacore chip, LPHN3 olfactomedin domain injected as analyte, 1:1 binding model, parent: 40 nM), the Kd came out at 15 nM. For the same molecule, in test [6] (setting [7]), the response was 390 RU.

B6 yielded a Kd in test [2] of 40 nM.

(Values after publication PMC4396693, “Structural Basis of Latrophilin-FLRT Interaction” (Structure(London, England:1993), 2015).)
